This note sets out measurements from patent US20230114801A1 (SYSTIMMUNE, published 2023).

B4: CD19 (receptor, UniProt P15391 20-291, looked up)
chain: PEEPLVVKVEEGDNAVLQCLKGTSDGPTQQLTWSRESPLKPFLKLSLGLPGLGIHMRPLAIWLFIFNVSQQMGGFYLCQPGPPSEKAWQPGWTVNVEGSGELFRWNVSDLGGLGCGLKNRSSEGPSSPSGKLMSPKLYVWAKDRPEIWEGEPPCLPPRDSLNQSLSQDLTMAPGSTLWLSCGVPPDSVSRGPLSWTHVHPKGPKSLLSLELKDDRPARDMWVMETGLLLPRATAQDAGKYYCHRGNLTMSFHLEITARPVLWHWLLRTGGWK

The target of one assay is NKG2D ligand. In words: BLI (Octet); conditions and ligand not stated. Background: BLI is a label-free optical method that tracks binding on a fibre tip over time.
Assay [1] deals with T1, human CD3 (human, UniProt P07766 23-126; P04234 22-105).
T1 construct: also called His-tagged human CD3; human CD3 (Acro CDD-H52W1)
Nature of the assay: BLI (Octet); conditions not stated.

A further assay addresses T2, human 4-1BB (human, UniProt Q07011 24-186, limits assumed).
T2 construct: Soluble antigen in Octet; construct not described
In words: antigen binding kinetics; method not given.

Assay [2] addresses T1, human CD3. Nature of the assay: antigen binding kinetics; method not given.
The assay “CD19” addresses B4. Nature of the assay: antigen binding kinetics; method not given.
The target in another assay is T3, human PD-L1 (human, UniProt Q9NZQ7 19-238).
T3 construct: Soluble antigen in Octet; bought; also called human PD-L1 (Acro PD1-H5229)
In words: antigen binding kinetics; method not given.

For the next assay, the target named is T4, SI-49P9.
T4 construct: penta-miniGNC; D1 αCD3, D2 αCD19, D3 NKG2D receptor dimer, D4 41BBL, D5 αPD-L1
In words: BLI (Octet); conditions not stated.

Assay [3] addresses T1, human CD3. Nature of the assay: BLI (Octet), unstapled control mAb or Fc-scFv.

T4 sequence (chain, as listed by the source): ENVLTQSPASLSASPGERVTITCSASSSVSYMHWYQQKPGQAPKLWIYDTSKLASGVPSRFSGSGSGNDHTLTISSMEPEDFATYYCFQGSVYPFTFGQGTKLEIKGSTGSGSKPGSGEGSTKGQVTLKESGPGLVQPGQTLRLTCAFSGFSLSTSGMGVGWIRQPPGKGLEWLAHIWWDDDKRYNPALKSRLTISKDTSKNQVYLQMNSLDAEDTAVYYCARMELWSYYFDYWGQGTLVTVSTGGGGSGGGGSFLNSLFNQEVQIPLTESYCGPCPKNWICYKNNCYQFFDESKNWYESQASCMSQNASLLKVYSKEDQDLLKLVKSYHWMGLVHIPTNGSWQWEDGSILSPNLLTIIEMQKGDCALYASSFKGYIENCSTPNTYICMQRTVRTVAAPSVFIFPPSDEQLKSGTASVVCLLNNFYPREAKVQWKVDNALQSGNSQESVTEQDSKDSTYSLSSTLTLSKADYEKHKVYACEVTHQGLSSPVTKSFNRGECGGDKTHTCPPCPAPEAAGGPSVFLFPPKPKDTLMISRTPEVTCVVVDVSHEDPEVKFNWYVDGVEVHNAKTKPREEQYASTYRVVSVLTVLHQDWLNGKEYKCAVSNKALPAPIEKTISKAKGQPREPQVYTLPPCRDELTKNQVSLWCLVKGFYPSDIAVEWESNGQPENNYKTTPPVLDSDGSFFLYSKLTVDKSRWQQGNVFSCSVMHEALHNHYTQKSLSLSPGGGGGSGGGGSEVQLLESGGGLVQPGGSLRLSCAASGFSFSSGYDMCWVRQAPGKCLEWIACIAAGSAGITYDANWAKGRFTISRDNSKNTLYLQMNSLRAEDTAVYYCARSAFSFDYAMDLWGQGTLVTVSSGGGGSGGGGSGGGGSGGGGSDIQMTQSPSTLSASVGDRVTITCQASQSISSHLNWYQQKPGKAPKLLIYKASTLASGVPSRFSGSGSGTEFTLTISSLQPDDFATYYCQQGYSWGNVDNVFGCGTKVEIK

B1: SI-49R27 (bispecific antibody, human IgG1, kappa, L234A L235A, N297A)
chain 1: EIVMTQSPSTLSASVGDRVIITCQASESISSWLAWYQQKPGKAPKLLIYEASKLASGVPSRFSGSGSGAEFTLTISSLQPDDFATYYCQGYFYFISRTYVNSFGCGTKLTVLGSTGSGSKPGSGEGSTKGEVQLVESGGGLVQPGGSLRLSCTASGFTISTNAMSWVRQAPGKCLEWVGVITGRDITYYASWAKGRFTISRDTSKNTVYLQMNSLRAEDTAVYYCARDGGSSAITSNNIWGQGTLVTVSTGGGGSGGGGSFLNSLFNQEVQIPLTESYCGPCPKNWICYKNNCYQFFDESKNWYESQASCMSQNASLLKVYSKEDQDLLKLVKSYHWMGLVHIPTNGSWQWEDGSILSPNLLTIIEMQKGDCALYASSFKGYIENCSTPNTYICMQRTVASTKGPSVFPLAPSSKSTSGGTAALGCLVKDYFPEPVTVSWNSGALTSGVHTFPAVLQSSGLYSLSSVVTVPSSSLGTQTYICNVNHKPSNTKVDKRVEPKSCDKTHTCPPCPAPEAAGGPSVFLFPPKPKDTLMISRTPEVTCVVVDVSHEDPEVKFNWYVDGVEVHNAKTKPREEQYASTYRVVSVLTVLHQDWLNGKEYKCAVSNKALPAPIEKTISKAKGQPREPQVCTLPPSRDELTKNQVSLSCAVKGFYPSDIAVEWESNGQPENNYKTTPPVLDSDGSFFLVSKLTVDKSRWQQGNVFSCSVMHEALHNHYTQKSLSLSPG
chain 2: not shown
notes: bi-miniGNC; D1 αCD3, D3 NKG2D receptor dimer
As to B1, the Kd with NKG2D ligand turned out to be 16 nM; in the assay with human CD3 [1], 32.2 nM.

B2: SI-38P11 (other)
chain 1: QIVLSQSPAILSASPGEKVTMTCRASSSVSYIHWFQQKPGSSPKPWIYATSNLASGVPVRFSGSGSGTSYSLTISRVEAEDAATYYCQQWTSNPPTFGGGTKLTVLGGGGSGGGGSGGGGSGGGGSQVQLQQPGAELVKPGASVKMSCKASGYTFTSYNMHWVKQTPGRGLEWIGAIYPGNGDTSYNQKFKGKATLTADKSSSTAYMQLSSLTSEDSAVYYCARSTYYGGDWYFNVWGAGTTVTVSSGGGGSGGGGSEVQLVESGGGLVQPGGSLRLSCAASGFTISTNAMSWVRQAPGKGLEWIGVITGRDITYYASWAKGRFTISRDNSKNTLYLQMNSLRAEDTAVYYCARDGGSSAITSNNIWGQGTLVTVSSASTKGPSVFPLAPSSKSTSGGTAALGCLVKDYFPEPVTVSWNSGALTSGVHTFPAVLQSSGLYSLSSVVTVPSSSLGTQTYICNVNHKPSNTKVDKRVEPKSCDKTHTCPPCPAPEAAGGPSVFLFPPKPKDTLMISRTPEVTCVVVDVSHEDPEVKFNWYVDGVEVHNAKTKPREEQYNSTYRVVSVLTVLHQDWLNGKEYKCAVSNKALPAPIEKTISKAKGQPREPQVYTLPPSRDELTKNQVSLSCAVKGFYPSDIAVEWESNGQPENNYKTTPPVLDSDGSFFLVSKLTVDKSRWQQGNVFSCSVMHEALHNHYTQKSLSLSPGGGGGSGGGGSDVVMTQSPSSVSASVGDRVTITCQASQNIRTYLSWYQQKPGKAPKLLIYAAANLASGVPSRFSGSGSGTDFTLTISDLEPGDAATYYCQSTYLGTDYVGGAFGGGTKLTVLGGGGSGGGGSGGGGSGGGGSEVQLVESGGGLVQPGGSLRLSCTASGFTISSYHMQWVRQAPGKGLEYIGTISSGGNVYYASSARGRFTISRPSSKNTVDLQMNSLRAEDTAVYYCARDSGYSDPMWGQGTLVTVSS
chain 2: ENVLTQSPASLSASPGERVTITCSASSSVSYMHWYQQKPGQAPKLWIYDTSKLASGVPSRFSGSGSGNDHTLTISSMEPEDFATYYCFQGSVYPFTFGQGTKVTVLGGGGSGGGGSGGGGSGGGGSQVTLKESGPGLVQPGQTLSLTCAFSGFSLSTSGMGVGWIRQPPGKGLEWLAHIWWDDDKRYNPALKSRLTISKDTSKNQVYLQMNSLDAEDTAVYYCARMELWSYYFDYWGQGTLVTVSSGGGGSGGGGSDVVMTQSPSTLSASVGDRVTINCQASESISSWLAWYQQKPGKAPKLLIYEASKLASGVPSRFSGSGSGTEFTLTISSLQPDDFATYYCQGYFYFISRTYVNSFGGGTKVEIKRTVAAPSVFIFPPSDEQLKSGTASVVCLLNNFYPREAKVQWKVDNALQSGNSQESVTEQDSKDSTYSLSSTLTLSKADYEKHKVYACEVTHQGLSSPVTKSFNRGECGGDKTHTCPPCPAPEAAGGPSVFLFPPKPKDTLMISRTPEVTCVVVDVSHEDPEVKFNWYVDGVEVHNAKTKPREEQYNSTYRVVSVLTVLHQDWLNGKEYKCAVSNKALPAPIEKTISKAKGQPREPQVYTLPPSRDELTKNQVSLWCLVKGFYPSDIAVEWESNGQPENNYKTTPPVLDSDGSFFLYSKLTVDKSRWQQGNVFSCSVMHEALHNRFTQKSLSLSPGGGGGSGGGGSDIQMTQSPSTLSASVGDRVTITCQASQSISSHLNWYQQKPGKAPKLLIYKASTLASGVPSRFSGSGSGTEFTLTISSLQPDDFATYYCQQGYSWGNVDNVFGGGTKVTVLGGGGSGGGGSGGGGSGGGGSEVQLLESGGGLVQPGGSLSLSCAASGFSFSSGYDMCWVRQAPGKGLEWIACIAAGSAGITYDANWAKGRFTISRDNSKNTLYLQMNSLRAEDTAVYYCARSAFSFDYAMDLWGQGTLVTVSS
notes: penta-miniGNC; D1 αCD20 scFv, D2 αCD19, D3 αCD3 Fab without additional disulphide, D4 α4-1BB, D5 αPD-L1 scFv
For the molecule B2, the Kd came out at 14.8 nM with human 4-1BB, 5.23 nM with human CD3 [2], 1.89 nM in the assay with CD19 and 1.1 nM in the assay with human PD-L1.

B3: SI-76PM1 (other)
chain 1: QIVLSQSPAILSASPGEKVTMTCRASSSVSYIHWFQQKPGSSPKPWIYATSNLASGVPVRFSGSGSGTSYSLTISRVEAEDAATYYCQQWTSNPPTFGGGTKLTVLGGGGSGGGGSGGGGSGGGGSQVQLQQPGAELVKPGASVKMSCKASGYTFTSYNMHWVKQTPGRGLEWIGAIYPGNGDTSYNQKFKGKATLTADKSSSTAYMQLSSLTSEDSAVYYCARSTYYGGDWYFNVWGAGTTVTVSSGGGGSGGGGSEVQLVESGGGLVQPGGSLRLSCAASGFTISTNAMSWVRQAPGKCLEWIGVITGRDITYYASWAKGRFTISRDNSKNTLYLQMNSLRAEDTAVYYCARDGGSSAITSNNIWGQGTLVTVSSASTKGPSVFPLAPSSKSTSGGTAALGCLVKDYFPEPVTVSWNSGALTSGVHTFPAVLQSSGLYSLSSVVTVPSSSLGTQTYICNVNHKPSNTKVDKRVEPKSCDKTHTCPPCPAPEAAGGPSVFLFPPKPKDTLMISRTPEVTCVVVDVSHEDPEVKFNWYVDGVEVHNAKTKPREEQYNSTYRVVSVLTVLHQDWLNGKEYKCAVSNKALPAPIEKTISKAKGQPREPQVYTLPPSRDELTKNQVSLSCAVKGFYPSDIAVEWESNGQPENNYKTTPPVLDSDGSFFLVSKLTVDKSRWQQGNVFSCSVMHEALHNHYTQKSLSLSPGGGGGSGGGGSDVVMTQSPSSVSASVGDRVTITCQASQNIRTYLSWYQQKPGKAPKLLIYAAANLASGVPSRFSGSGSGTDFTLTISDLEPGDAATYYCQSTYLGTDYVGGAFGGGTKLTVLGGGGSGGGGSGGGGSGGGGSEVQLVESGGGLVQPGGSLRLSCTASGFTISSYHMQWVRQAPGKGLEYIGTISSGGNVYYASSARGRFTISRPSSKNTVDLQMNSLRAEDTAVYYCARDSGYSDPMWGQGTLVTVSS
chain 2: ENVLTQSPASLSASPGERVTITCSASSSVSYMHWYQQKPGQAPKLWIYDTSKLASGVPSRFSGSGSGNDHTLTISSMEPEDFATYYCFQGSVYPFTFGQGTKVTVLGGGGSGGGGSGGGGSGGGGSQVTLKESGPGLVQPGQTLSLTCAFSGFSLSTSGMGVGWIRQPPGKGLEWLAHIWWDDDKRYNPALKSRLTISKDTSKNQVYLQMNSLDAEDTAVYYCARMELWSYYFDYWGQGTLVTVSSGGGGSGGGGSDVVMTQSPSTLSASVGDRVTINCQASESISSWLAWYQQKPGKAPKLLIYEASKLASGVPSRFSGSGSGTEFTLTISSLQPDDFATYYCQGYFYFISRTYVNSFGCGTKVEIKRTVAAPSVFIFPPSDEQLKSGTASVVCLLNNFYPREAKVQWKVDNALQSGNSQESVTEQDSKDSTYSLSSTLTLSKADYEKHKVYACEVTHQGLSSPVTKSFNRGECGGDKTHTCPPCPAPEAAGGPSVFLFPPKPKDTLMISRTPEVTCVVVDVSHEDPEVKFNWYVDGVEVHNAKTKPREEQYNSTYRVVSVLTVLHQDWLNGKEYKCAVSNKALPAPIEKTISKAKGQPREPQVYTLPPSRDELTKNQVSLWCLVKGFYPSDIAVEWESNGQPENNYKTTPPVLDSDGSFFLYSKLTVDKSRWQQGNVFSCSVMHEALHNRFTQKSLSLSPGGGGGSGGGGSDIQMTQSPSTLSASVGDRVTITCQASQSISSHLNWYQQKPGKAPKLLIYKASTLASGVPSRFSGSGSGTEFTLTISSLQPDDFATYYCQQGYSWGNVDNVFGGGTKVTVLGGGGSGGGGSGGGGSGGGGSEVQLLESGGGLVQPGGSLSLSCAASGFSFSSGYDMCWVRQAPGKGLEWIACIAAGSAGITYDANWAKGRFTISRDNSKNTLYLQMNSLRAEDTAVYYCARSAFSFDYAMDLWGQGTLVTVSS
notes: penta-miniGNC; as SI-38P11 but with an additional disulphide ('staple') in the D3 αCD3 Fab VH/VL
On to B3, for which the Kd with human 4-1BB amounted to 22.4 nM; with human CD3 [2] it was 3.22 nM; in the assay with CD19, 3.3 nM; in the assay with human PD-L1 it was 1.47 nM.

In the assay with SI-49P9, B4 returned a Kd of 6.4 nM.

B5: SI-9C21 (antibody, human IgG1, kappa, V domains shown)
VH: EVQLVESGGGLVQPGGSLRLSCTASGFTISTNAMSWVRQAPGKGLEWVGVITGRDITYYASWAKGRFTISRDTSKNTVYLQMNSLRAEDTAVYYCARDGGSSAITSNNIWGQGTLVTVSS
VL: EIVMTQSPSTLSASVGDRVIITCQASESISSWLAWYQQKPGKAPKLLIYEASKLASGVPSRFSGSGSGAEFTLTISSLQPDDFATYYCQGYFYFISRTYVNSFGQGTKLTVLR
notes: monoclonal antibody control for the αCD3 domain; also called αCD3 mAb; D3 = αCD3 control
Molecule B5 showed a Kd with human CD3 [3] of 26.3 nM.

Usually Kd stands for a measure of binding affinity in units of concentration. A low value points to higher affinity.
